The values that follow come from publication PMC4686814 (Nature communications, 2015).

Data set [1] concerns the molecule itself. Nature of the data set: SEC; Superose 6; MsVps4ΔMIT at 200 µM (Fig. 1b) and at a series of concentrations up to 0.5 mM (Supplementary Fig. 2); no nucleotide.
A further data set concerns the target hVPS4B Phe160Ala (human) (UniProt O75351).
The target of data set [2] is T1, hVPS4B E235Q (catalytic mutant of human VPS4B) (human), O75351.
T1 chain: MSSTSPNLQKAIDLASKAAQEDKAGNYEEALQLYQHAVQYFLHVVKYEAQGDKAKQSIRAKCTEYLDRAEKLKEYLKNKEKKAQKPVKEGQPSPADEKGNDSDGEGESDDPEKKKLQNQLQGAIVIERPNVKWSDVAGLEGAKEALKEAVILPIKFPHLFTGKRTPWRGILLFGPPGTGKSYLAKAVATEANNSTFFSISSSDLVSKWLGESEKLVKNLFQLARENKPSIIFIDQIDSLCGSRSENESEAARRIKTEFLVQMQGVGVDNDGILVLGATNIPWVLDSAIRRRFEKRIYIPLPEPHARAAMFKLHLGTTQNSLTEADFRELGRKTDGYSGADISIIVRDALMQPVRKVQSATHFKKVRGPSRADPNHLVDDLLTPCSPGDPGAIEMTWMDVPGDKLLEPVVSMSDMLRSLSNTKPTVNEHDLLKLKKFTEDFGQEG
Nature of the data set: SEC; Superose 6; hVPS4B E235Q and mutants of it at 100 µM with 1 mM ATP and 5 mM MgCl2. Conditions: remark: other sources report otherwise.

A further data set deals with hVPS4B Met350Ala (human) (UniProt O75351).
Data set [3] deals with the molecule itself. Nature of the data set: SEC-SAXS; online SEC (Superose 6 10/300 GL) in 50 mM Tris pH 8.8, 50 mM NaCl; 500 µl at 220 µM injected; BM29 at the ESRF.
Data set [4] concerns the molecule itself. Description: SEC; Superose 6; N-terminally His-tagged full length MsVps4 and mutants at 70 µM, a concentration that induces dodecamer formation; no nucleotide. A general note: SEC sorts molecules by how far they enter the pores of the column.
Data set [5] concerns the molecule itself. Described as above. The source holds these as a separate data set.

Several values for one entry are separate records, joined by “and”; a condition that tells them apart may be missing. Identical values can stand only once.

B1: MsVps4ΔMIT (residues 75 to 369) (domain or fragment, Metallosphera sedula, UniProt A4YHC5 75-369, looked up)
chain: VPEGGEETEKAEEDIVMKEKPKVTLNEIVGLEDVKEALKEAVVYPSKRPDLFPLGWPRGILLYGPPGCGKTMIAAAVANELDSEFIHVDAASIMSKWLGEAEKNVAKIFKTARELSKKENKPAIIFIDELDALLASYTSEVGGEARVRNQFLKEMDGLADKNEISKVYVIGATNKPWRLDEPFLRRFQKRIYITLPDKAHRLELLKHYSSKVKLDPNVNLEELAELTDGYTASDIRDIVQSAHMRVVKEMFEKNLQEPRAINMDDFREVLKVRKPSVNQDMLKAYAAWHEKFKAL
One may read the stoichiometry N as a count of units in the complex or per binding partner. For B1, in data set [1], the “stoichiometry N” value was 6.

B2: hVPS4B Phe160Ala (enzyme)
chain: MSSTSPNLQKAIDLASKAAQEDKAGNYEEALQLYQHAVQYFLHVVKYEAQGDKAKQSIRAKCTEYLDRAEKLKEYLKNKEKKAQKPVKEGQPSPADEKGNDSDGEGESDDPEKKKLQNQLQGAIVIERPNVKWSDVAGLEGAKEALKEAVILPIKFPHLATGKRTPWRGILLFGPPGTGKSYLAKAVATEANNSTFFSISSSDLVSKWLGESEKLVKNLFQLARENKPSIIFIDEIDSLCGSRSENESEAARRIKTEFLVQMQGVGVDNDGILVLGATNIPWVLDSAIRRRFEKRIYIPLPEPHARAAMFKLHLGTTQNSLTEADFRELGRKTDGYSGADISIIVRDALMQPVRKVQSATHFKKVRGPSRADPNHLVDDLLTPCSPGDPGAIEMTWMDVPGDKLLEPVVSMSDMLRSLSNTKPTVNEHDLLKLKKFTEDFGQEG
Take B2: in the data set with hVPS4B Phe160Ala (human), the ATPase activity at 37°C with ATP/Mg, percent of wild-type hVPS4B is 0%.

B3: hVPS4B E235Q (catalytic mutant of human VPS4B), O75351 1-444 (enzyme)
chain: MSSTSPNLQKAIDLASKAAQEDKAGNYEEALQLYQHAVQYFLHVVKYEAQGDKAKQSIRAKCTEYLDRAEKLKEYLKNKEKKAQKPVKEGQPSPADEKGNDSDGEGESDDPEKKKLQNQLQGAIVIERPNVKWSDVAGLEGAKEALKEAVILPIKFPHLFTGKRTPWRGILLFGPPGTGKSYLAKAVATEANNSTFFSISSSDLVSKWLGESEKLVKNLFQLARENKPSIIFIDQIDSLCGSRSENESEAARRIKTEFLVQMQGVGVDNDGILVLGATNIPWVLDSAIRRRFEKRIYIPLPEPHARAAMFKLHLGTTQNSLTEADFRELGRKTDGYSGADISIIVRDALMQPVRKVQSATHFKKVRGPSRADPNHLVDDLLTPCSPGDPGAIEMTWMDVPGDKLLEPVVSMSDMLRSLSNTKPTVNEHDLLKLKKFTEDFGQEG
For B3, the stoichiometry N in data set [2] turned out to be 6.

B4: hVPS4B Met350Ala (enzyme)
chain: MSSTSPNLQKAIDLASKAAQEDKAGNYEEALQLYQHAVQYFLHVVKYEAQGDKAKQSIRAKCTEYLDRAEKLKEYLKNKEKKAQKPVKEGQPSPADEKGNDSDGEGESDDPEKKKLQNQLQGAIVIERPNVKWSDVAGLEGAKEALKEAVILPIKFPHLFTGKRTPWRGILLFGPPGTGKSYLAKAVATEANNSTFFSISSSDLVSKWLGESEKLVKNLFQLARENKPSIIFIDEIDSLCGSRSENESEAARRIKTEFLVQMQGVGVDNDGILVLGATNIPWVLDSAIRRRFEKRIYIPLPEPHARAAMFKLHLGTTQNSLTEADFRELGRKTDGYSGADISIIVRDALAQPVRKVQSATHFKKVRGPSRADPNHLVDDLLTPCSPGDPGAIEMTWMDVPGDKLLEPVVSMSDMLRSLSNTKPTVNEHDLLKLKKFTEDFGQEG
Take B4: the ATPase activity at 37°C with ATP/Mg, percent of wild-type hVPS4B in the data set with hVPS4B Met350Ala (human) came to 0%.

B5: MsVPS4 M318A, full length, His tag cleaved (enzyme, Metallosphera sedula, UniProt A4YHC5 1-369, looked up)
chain: MSAQVMLEEMARKYAIAAVRADKEGRREDAINNYKKAIEVLTQIVTLYPDMVARNAYEQMINEYKKRLETLNQMVPEGGEETEKAEEDIVMKEKPKVTLNEIVGLEDVKEALKEAVVYPSKRPDLFPLGWPRGILLYGPPGCGKTMIAAAVANELDSEFIHVDAASIMSKWLGEAEKNVAKIFKTARELSKKENKPAIIFIDELDALLASYTSEVGGEARVRNQFLKEMDGLADKNEISKVYVIGATNKPWRLDEPFLRRFQKRIYITLPDKAHRLELLKHYSSKVKLDPNVNLEELAELTDGYTASDIRDIVQSAHARVVKEMFEKNLQEPRAINMDDFREVLKVRKPSVNQDMLKAYAAWHEKFKAL
As to B5, the “stoichiometry N” value in data set [3] turned out to be 6.

B6: MsVps4 Arg259Ala Arg260Ala, full length, N-terminally His-tagged (enzyme, Metallosphera sedula, UniProt A4YHC5 1-369, looked up)
chain: MSAQVMLEEMARKYAIAAVRADKEGRREDAINNYKKAIEVLTQIVTLYPDMVARNAYEQMINEYKKRLETLNQMVPEGGEETEKAEEDIVMKEKPKVTLNEIVGLEDVKEALKEAVVYPSKRPDLFPLGWPRGILLYGPPGCGKTMIAAAVANELDSEFIHVDAASIMSKWLGEAEKNVAKIFKTARELSKKENKPAIIFIDELDALLASYTSEVGGEARVRNQFLKEMDGLADKNEISKVYVIGATNKPWRLDEPFLAAFQKRIYITLPDKAHRLELLKHYSSKVKLDPNVNLEELAELTDGYTASDIRDIVQSAHMRVVKEMFEKNLQEPRAINMDDFREVLKVRKPSVNQDMLKAYAAWHEKFKAL
As for B6, the figures for the “stoichiometry N” value in data set [4] and in data set [5] were 6 and 2, respectively.

B7: MsVps4 Ser169Ala, full length, N-terminally His-tagged (enzyme, Metallosphera sedula, UniProt A4YHC5 1-369, looked up)
chain: MSAQVMLEEMARKYAIAAVRADKEGRREDAINNYKKAIEVLTQIVTLYPDMVARNAYEQMINEYKKRLETLNQMVPEGGEETEKAEEDIVMKEKPKVTLNEIVGLEDVKEALKEAVVYPSKRPDLFPLGWPRGILLYGPPGCGKTMIAAAVANELDSEFIHVDAASIMAKWLGEAEKNVAKIFKTARELSKKENKPAIIFIDELDALLASYTSEVGGEARVRNQFLKEMDGLADKNEISKVYVIGATNKPWRLDEPFLRRFQKRIYITLPDKAHRLELLKHYSSKVKLDPNVNLEELAELTDGYTASDIRDIVQSAHMRVVKEMFEKNLQEPRAINMDDFREVLKVRKPSVNQDMLKAYAAWHEKFKAL
In the case of B7, the “stoichiometry N” value in data set [4] was 12; in data set [5] it was 6.

B8: MsVps4 Met318Ala, full length, N-terminally His-tagged (enzyme, Metallosphera sedula, UniProt A4YHC5 1-369, looked up)
chain: MSAQVMLEEMARKYAIAAVRADKEGRREDAINNYKKAIEVLTQIVTLYPDMVARNAYEQMINEYKKRLETLNQMVPEGGEETEKAEEDIVMKEKPKVTLNEIVGLEDVKEALKEAVVYPSKRPDLFPLGWPRGILLYGPPGCGKTMIAAAVANELDSEFIHVDAASIMSKWLGEAEKNVAKIFKTARELSKKENKPAIIFIDELDALLASYTSEVGGEARVRNQFLKEMDGLADKNEISKVYVIGATNKPWRLDEPFLRRFQKRIYITLPDKAHRLELLKHYSSKVKLDPNVNLEELAELTDGYTASDIRDIVQSAHARVVKEMFEKNLQEPRAINMDDFREVLKVRKPSVNQDMLKAYAAWHEKFKAL
B8: the “stoichiometry N” value in data set [4] was determined as 6; in data set [5], 2.

B9: MsVps4 Glu174Ala Glu176Ala, full length, N-terminally His-tagged (enzyme, Metallosphera sedula, UniProt A4YHC5 1-369, looked up)
chain: MSAQVMLEEMARKYAIAAVRADKEGRREDAINNYKKAIEVLTQIVTLYPDMVARNAYEQMINEYKKRLETLNQMVPEGGEETEKAEEDIVMKEKPKVTLNEIVGLEDVKEALKEAVVYPSKRPDLFPLGWPRGILLYGPPGCGKTMIAAAVANELDSEFIHVDAASIMSKWLGAAAKNVAKIFKTARELSKKENKPAIIFIDELDALLASYTSEVGGEARVRNQFLKEMDGLADKNEISKVYVIGATNKPWRLDEPFLRRFQKRIYITLPDKAHRLELLKHYSSKVKLDPNVNLEELAELTDGYTASDIRDIVQSAHMRVVKEMFEKNLQEPRAINMDDFREVLKVRKPSVNQDMLKAYAAWHEKFKAL
B9: the “stoichiometry N” value in data set [4] is 12; in data set [5] it was 6 and 2.

B10: MsVps4 Glu214Tyr, full length, N-terminally His-tagged (enzyme, Metallosphera sedula, UniProt A4YHC5 1-369, looked up)
chain: MSAQVMLEEMARKYAIAAVRADKEGRREDAINNYKKAIEVLTQIVTLYPDMVARNAYEQMINEYKKRLETLNQMVPEGGEETEKAEEDIVMKEKPKVTLNEIVGLEDVKEALKEAVVYPSKRPDLFPLGWPRGILLYGPPGCGKTMIAAAVANELDSEFIHVDAASIMSKWLGEAEKNVAKIFKTARELSKKENKPAIIFIDELDALLASYTSYVGGEARVRNQFLKEMDGLADKNEISKVYVIGATNKPWRLDEPFLRRFQKRIYITLPDKAHRLELLKHYSSKVKLDPNVNLEELAELTDGYTASDIRDIVQSAHMRVVKEMFEKNLQEPRAINMDDFREVLKVRKPSVNQDMLKAYAAWHEKFKAL
As to B10, the “stoichiometry N” value in data set [4] was 12; in data set [5], 6 and 2.

B11: MsVps4 wild type, full length, N-terminally His-tagged (enzyme, Metallosphera sedula, UniProt A4YHC5 1-369, looked up)
chain: MSAQVMLEEMARKYAIAAVRADKEGRREDAINNYKKAIEVLTQIVTLYPDMVARNAYEQMINEYKKRLETLNQMVPEGGEETEKAEEDIVMKEKPKVTLNEIVGLEDVKEALKEAVVYPSKRPDLFPLGWPRGILLYGPPGCGKTMIAAAVANELDSEFIHVDAASIMSKWLGEAEKNVAKIFKTARELSKKENKPAIIFIDELDALLASYTSEVGGEARVRNQFLKEMDGLADKNEISKVYVIGATNKPWRLDEPFLRRFQKRIYITLPDKAHRLELLKHYSSKVKLDPNVNLEELAELTDGYTASDIRDIVQSAHMRVVKEMFEKNLQEPRAINMDDFREVLKVRKPSVNQDMLKAYAAWHEKFKAL
B11: the “stoichiometry N” value in data set [4] is 12; in data set [5], 6 and 2.

B12: MsVps4 Ile89Glu, full length, N-terminally His-tagged (enzyme, Metallosphera sedula, UniProt A4YHC5 1-369, looked up)
chain: MSAQVMLEEMARKYAIAAVRADKEGRREDAINNYKKAIEVLTQIVTLYPDMVARNAYEQMINEYKKRLETLNQMVPEGGEETEKAEEDEVMKEKPKVTLNEIVGLEDVKEALKEAVVYPSKRPDLFPLGWPRGILLYGPPGCGKTMIAAAVANELDSEFIHVDAASIMSKWLGEAEKNVAKIFKTARELSKKENKPAIIFIDELDALLASYTSEVGGEARVRNQFLKEMDGLADKNEISKVYVIGATNKPWRLDEPFLRRFQKRIYITLPDKAHRLELLKHYSSKVKLDPNVNLEELAELTDGYTASDIRDIVQSAHMRVVKEMFEKNLQEPRAINMDDFREVLKVRKPSVNQDMLKAYAAWHEKFKAL
On to B12, for which the figures for the “stoichiometry N” value in data set [4] and in data set [5] were 12 and 6, respectively.
